This data set concerns the molecule itself. As to the kind of experiment: CM-transferrin zymography; purified and refolded 6 kDa ZBD (heparin and Triton X-100 present) in sample buffer without dithiothreitol at room temperature, run on a 12.5% SDS-PAGE gel with 0.3 mg/ml CM-transferrin embedded; oligomer size read from the active bands.

“And” between values parts separate entries of the source, which are not always exact repeats. Identical values can stand only once.

B1: recombinant rat matrilysin zinc-binding domain (ZBD) (domain or fragment, UniProt P50280 212-267, looked up)
chain: LFVATHELGHSLGLGHSSVPSSVMYPTYQGDHSEDFSLTKDDIAGIQKLYGKRNKL
notes: 212-267, said to correspond to human a.a; 188-247; called a 60-residue fragment; Cloned into the Nde1 and BamH1 sites of PET3a; also called 6 kDa ZBD; 6 kDa MMP-7 ZBD
Usually stoichiometry N stands for the number of molecules, sites or subunits per partner or assembly. Regarding B1, the “stoichiometry N” value is 6 and 8 and 5.

Values taken from article PMC3406945, “A smallest 6 kda metalloprotease, mini-matrilysin, in living world: a revolutionary conserved zinc-dependent proteolytic domain- helix-loop-helix catalytic zinc binding domain (ZBD)” (Journal of Biomedical Science, 2012).
